A short description of the series: yeast display, Sf9 membrane polyspecificity reagent, FACS + sequencing; frameworks hold sequencing errors. In short, it runs like this: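 Sorting gates, low and high (top ~1%), were placed on anti-HA fluorescence to track expression and on streptavidin fluorescence to track reagent binding. A clone's polyreactivity label is taken from the gate it came out of. The reagent was 10% biotinylated, detergent-solubilized Sf9 membrane, applied for 1 hour at 4 °C to galactose-induced yeast display cells.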
Take “QVQLVESGGGLDQAGGSLRLSCAASGIIFYVNDMGWYRQAPGKERELVADISGGTSTNYADSVKGRFTISRDNAKNTVYLQMNSLKPEDTAVYYCATAFIVPFPGSDYCGQGTQVTVSS”: the “polyreactivity (PSR sort gate)” value is “low polyreactivity”.

Regarding “QVQLVESGGGLDQAGGSLRLSCAASGITVTSYVMGWYRQAHWKERELVAAIRWSGGRTYYADSVKGRFTISRDNAKNTVYLQMNSLKPEDTAVYYCNRVTRSHVDYWGQGTQVTVSS”, the “polyreactivity (PSR sort gate)” value is on record as “high polyreactivity”.

On to “QVQLVESGGGLDQAGGSLRLSCAASGKTFGNYGMGWYRQAPGKERELVAAISWTGGSTYYADSVKGRFTISRDNAKNTVYLQMNSMKPEDTAVYSCNKRPYLLFDYWGQGTQVTVSS”, for which the “polyreactivity (PSR sort gate)” value was “high polyreactivity”.

Turning to “QVQLVESGGGLDQAGGSLRLSCAASGLIFYTYAMGWYRQAPGKERELVADINRSDGSTYYADSVKGRFTISRDNAKNTVYLQMNSLKPEDTAVYYCAVVGTYYSRFGGRYYYWGQGTQVTVSS”, the “polyreactivity (PSR sort gate)” value is reported as “low polyreactivity”.

Turning to “QVQLVESGGGLDQAGGSLRLSCAASGRIFGRNAMGWYRQAPGKERELVAAITWSGGSTNYADSVKGRFTISRDNAKNTVYLEMNSLKPEDTAFYYCAKRYTPRPYKGICYYYWGQGTQVTVSS”, the “polyreactivity (PSR sort gate)” value is reported as “high polyreactivity”.

Take “QVQLVESGGGLDQAGGSLRLSCAASGRIFSPNAMGWYRQAPGKERELVAAISRIGGRTYYADSVKGRFTISRDNAKNTVYLQMNSLKPEDTGVFYCNVVATHTDFTYDFWGQGTQVTVSS”: the “polyreactivity (PSR sort gate)” value is listed as “high polyreactivity”.

As to “QVQLVESGGGLDQAGGSLRLSCAASGRILRGYVMGWYRQAPGKERELVATITGRGGSTYYADSVKGRFTISRDNAKNSVYLQMNSLKPEDPAVYYCNKDGYPYFGRSESWGQGPQVTVSS”, the “polyreactivity (PSR sort gate)” value is on record as “low polyreactivity”.

“QVQLVESGGGLDQAGGSLRLSCAASGRTFADYAMGWYRQAPGNERELVADISKRGGSTYFADSVKGRFTISRDNAKNTFYLQMNSLKAEDTAVYYCAAGWYYYPTFYKVKSYNYWGQGTQVTVSS”: the “polyreactivity (PSR sort gate)” value is on record as “high polyreactivity”.

Turning to “QVQLVESGGGLDQAGGSLRLSCAASGRTFIRNVMGWYRQAPGKERELVAGITGGGNTYYADSVKGRFTISRDNAKNTVYLQMNSLKPEDTAVYYCAVRYPSYGLSYVRYGYWGQGTQVTVSS”, the “polyreactivity (PSR sort gate)” value is “high polyreactivity”.

Turning to “QVQLVESGGGLDQAGGSLRLSCAASGRTFKWNAIGWYRQAHGKERELVASITSGGSTNYADSVKGRFTISRDNAKNTVYLQMNSLKPEDTAVYYCNAEYYLFKRPYSYYYWGQGTQVTVSS”, the “polyreactivity (PSR sort gate)” value was “low polyreactivity”.

In the case of “QVQLVESGGGLDQAGGSLRLSCAASGRTFTEYAMGWYRQAPGKERELVARISIGDSTYYADSVKGRFTISRDNAKNTDYLQMNSLKPEDTAVYYCNAEYSRSYRYDEGYWGQGTQVTVSS”, the “polyreactivity (PSR sort gate)” value is “low polyreactivity”.

“QVQLVESGGGLDQAGGSLRLSCAASGRTFVYYALGWYRQAPRQERELVAAITWSGGRTYYADSVKGRFTISRDNAKNTVYLQMNSLKPEDTAVYYCNRDQWAWESGYAYNYCGQGTQVTVSS”: the “polyreactivity (PSR sort gate)” value is listed as “low polyreactivity”.

For the sequence “QVQLVESGGGLDQAGGSLRLSCAASGRTFYIYTMGWYRQAPGKERELVAAISSSGDSTYYADSVKGRFTISRDNGKNTVYLQMNSLKPEDTAVYYCAAYATYPDEYWGEGTQVTVSS”, the “polyreactivity (PSR sort gate)” value was “low polyreactivity”.

As to “QVQLVESGGGLDQAGGSLRLSCAASGRTFYYNAMGWYRQAPGKERELVADINWSGVRTYYADSVKGRFTISRDNAKNTVYLQMNSLKPEDTAVYYCAARYRTLTKYYWGQGTQVTVSS”, the “polyreactivity (PSR sort gate)” value was “low polyreactivity”.

Consider “QVQLVESGGGLDQAGGSLRLSCAASGSIFDSNAMGWYRQAPGKERELVAAISLSGGSTYYADSVKGRFTISRDNAKNTVYLQMNSLKPEDTAVYYCAKDGWYEYYWGQGTQVTVSS”, for which the “polyreactivity (PSR sort gate)” value was “low polyreactivity”.

Consider “QVQLVESGGGLDQAGGSLRLSCAASGSIFGSYAMGWNTPAPGKERELVAAISVSGGSTYYADSVKGRFTISRYNAKNTVYLQMNSLKPEDTAVYYCAADWQELEYDYWGQGTQVTVSS”, for which the “polyreactivity (PSR sort gate)” value is reported as “low polyreactivity”.

For the sequence “QVQLVESGGGLDQAGGSLRLSCAASGSIFGSYTMGWYRQAPGKERQLVAVINWSGDRTYYADSVKGRFTISRDNAKNTVYLQMNSLKPEDTAVYYCAARERAGYSRIRYNYWGQGTQGTVSS”, the “polyreactivity (PSR sort gate)” value is listed as “high polyreactivity”.

“QVQLVESGGGLDQAGGSLRLSCAASGSIFGYYAMGWYRQAPGKERELVAAISRSGGSTYYADSVKGRFTISRDNAKNTVYLQMNSLKPEDTAVYYCAARPPYRVGIVPLGRREYYWGQGTQVTVSS”: the “polyreactivity (PSR sort gate)” value is listed as “high polyreactivity”.

For “QVQLVESGGGLDQAGGSLRLSCAASGSIFNYKAMGWYRQAPGKEREMVAGISYHGDSTYADSVKGPFTISRDNAKNTVYLQMKSLKPEDTAVYYCAALGPDDWLWAGDYWGQGTQVTVSS”, the “polyreactivity (PSR sort gate)” value is “low polyreactivity”.

Take “QVQLVESGGGLDQAGGSLRLSCAASGSIFSDNVMGWYRQAPGKERELVAAIRDGDTTNYADSVKGRFTISRDNAKNTVYLQMNSLKPEDTAVYYCAAVQDSSPDYSYAYLDGDRDYWGQGTQVTVSS”: the “polyreactivity (PSR sort gate)” value is “low polyreactivity”.

Turning to “QVQLVESGGGLDQAGGSLRLSCAASGSIFSGYAMGWYRQAPGKERELVAGISSRGGRTYYADSVKGRFTISRDNAKNTVYLQMNSLKPEDTAVYYCAARWSRSRTSDRYNYWGQGTQVTVSS”, the “polyreactivity (PSR sort gate)” value was “high polyreactivity”.

With “QVQLVESGGGLDQAGGSLRLSCAASGSIFTVNAMGWYRQAPGKERELVAAIDGSSGSTNYADSVKGRFTISRDNAKNTVYLQMNSLKPEDTAVYFCAADWSYEYGYWGQGTQVTVSS”, the “polyreactivity (PSR sort gate)” value is on record as “low polyreactivity”.

As for “QVQLVESGGGLDQAGGSLRLSCAASGSILVSNDMGWYRQAPGKERELVAAISWSGGSTYYADSVKGRFTISRDNAKNTVYLQMNSLKPEDTAVYYCAAGFGFLFARQELDFDYWGQGTQVTVSS”, the “polyreactivity (PSR sort gate)” value is listed as “low polyreactivity”.

In the case of “QVQLVESGGGLDQAGGSLRLSCAASGSLFARNTMGGYRQAPGKERELVATITARGGSTYADSVKGRFTISRDNAKNTVYLQMNSLKPEDTAVYYCNADYGLFSRATFYGYDYWGQGTQVTVSS”, the “polyreactivity (PSR sort gate)” value is “low polyreactivity”.

In the case of “QVQLVESGGGLDQAGGSLRLSCAASGSTFKPNVMGWYRQAPGEERELVAAISSRGGRTYYADSVKGRFTISRDNEKNNVYLQMNRLKPEDTAVYYCAALYLATGVDKAFDSWGQGTQVTVSS”, the “polyreactivity (PSR sort gate)” value was “high polyreactivity”.

Take “QVQLVESGGGLDQAGGSLRLSCAASGSTFKWNAMGWYRQAPGKERELVAAISKGSVNTYYADSVKGRFTISRDNAKNTVYLQMNSLKPEDTAVYYCAADRRYPALDYWGQGTQVTVSS”: the “polyreactivity (PSR sort gate)” value was “high polyreactivity”.

Take “QVQLVESGGGLDQAGGSLRLSCAASGSTFQVNVMAWYRQAPGKEREFVAGISYSGGSTYYADSVKGRFTISRDNAKNTVYLQMNSLKPEDTAVYYCAAEEDYNIAGSWTYTYDYWGQGTQVTVSS”: the “polyreactivity (PSR sort gate)” value was “low polyreactivity”.

Regarding “QVQLVESGGGLDQAGGSLRLSCAASGSTFSGYAMGWYRQAPGKERELVATITRRGGNTYYADSVKGRFTISRDNAKNTVYLQMNSLKPEDTAVYYCAKDGRVHSPYDYWGQGTQVTVSS”, the “polyreactivity (PSR sort gate)” value is “low polyreactivity”.

“QVQLVESGGGLDQAGGSLRLSCAASGSTFSIYTMGWYRQAPGKEREFVAAITYIGGRTYYADSVKGRFTISRDNAKNTVYLQMNSLKPEDTAVYYCAADWAYYVASYLYYTFDYWGQGTQVTVSS”: the “polyreactivity (PSR sort gate)” value is recorded as “low polyreactivity”.

Take “QVQLVESGGGLDQAGGSLRLSCAASGSTFWGYTMGWYRQAPGKERELVAAITSGGSTNYADSVKGRFTISRDNAKNTVYLQMYSLKPEDTAVYYCNAVYPGRRRYRKWYIYDYWGQGTQVTVSS”: the “polyreactivity (PSR sort gate)” value is “high polyreactivity”.

“QVQLVESGGGLDQAGGSLRLSCAASGSTFYYNTMGWYRQAPGKERELVAAISWRGVSTYYADSVKGRFTISRDNAKNTVYLQMNSLKPEDTAVYYCNAVHHYPEHIGGGYWGQGTQVTVSS”: the “polyreactivity (PSR sort gate)” value is reported as “low polyreactivity”.

On to “QVQLVESGGGLDQAGGSLRLSCAASGSTFYYYAMGWYRQAPGKERELVASISDDGSTNYADSVKGRFTISRDNAKNTVYLQMNSLKPEDTAVYYCAAVWWHQFGSAWYQMGYWGQGTQVTVSS”, for which the “polyreactivity (PSR sort gate)” value is recorded as “low polyreactivity”.

As to “QVQLVESGGGLDQAGGSLRLSCAASGSTLGRYTMGWYRQAPGKERELVAAITRGGRTNYADSVKGRFTISRDNAKNTVYLQMNSLKPEDTAVYYCAKLYRYGDYDYWGQGTQVTVSS”, the “polyreactivity (PSR sort gate)” value is “high polyreactivity”.

“QVQLVESGGGLDQAGGSLRLSCAASGSTLGYNAMGWYRQAPGKERVLVAAISRSGGITYYADSVKGRFTISRDTAKNTVYLQMNSLKPEDTAVYYCNAVDRTRYRPGNDYDYWGQGTQVTVSS”: the “polyreactivity (PSR sort gate)” value is on record as “high polyreactivity”.

“QVQLVESGGGLDQAGGSLRLSCAASGSTLGYNVMGWYRQAPGKERELVAAISGDGSTNYADSVKGRFTISRDNAKNTVYLQMNSLKPEDTAVYYCAARPGWFAGYEYWGQGTQVTVSS”: the “polyreactivity (PSR sort gate)” value is reported as “low polyreactivity”.

For “QVQLVESGGGLDQAGGSLRLSCAASGTIFTFYTMGWYRQAPGKERELVAAINWSGSRTYYADSVKGRFTISRDNAKNTVYLQMNSLKPEDTAVYYCAAEHWFPSAPWYYSDLHYYWGQGTQVTVSS”, the “polyreactivity (PSR sort gate)” value is “high polyreactivity”.

For “QVQLVESGGGLDQAGGSLRLSCAASGYILPKNTMGWYRQAPGKERELVAAISWSGGSTFYADSVKGRFTISRDNAKNTVYLQMNSLKPEETAVYYCAADRSWSWYYRYDYWGQGTQVTVSS”, the “polyreactivity (PSR sort gate)” value was “low polyreactivity”.

Turning to “QVQLVESGGGLDQAGGSLRLSCAASGYIVRNAMGWYRQAPWKERELVAAISRRGGSTYYADSVKGRFTISRDNAKNTVYLQMNSLKPEDTAVYYCAKDNVIPSFVADYYYWGQGTQVTVSS”, the “polyreactivity (PSR sort gate)” value was “high polyreactivity”.

Take “QVQLVESGGGLDQAGGSLRLSCAASGYTFGRNAMGWYRQAPGKERELVATISQRGGSTYYADSVKGRFTISRDNANNTVYLQMNSLKPEDTAVYYCAAGPIYRYRRYYYWGQGTQVTVSS”: the “polyreactivity (PSR sort gate)” value is given as “high polyreactivity”.

With “QVQLVESGGGLDQAGGSLRLSCAAYGGTLYYNAMGWYRQAPGKEREFVAAISSRGGRTYYADSVKGRFTISRDNAKNTVYLQMNSLKPEDTAVYYCAGSRTGRTYPSNRMYYWGQGTQVSVSS”, the “polyreactivity (PSR sort gate)” value is recorded as “high polyreactivity”.
